Test results: doi:10.1101/2025.10.06.680828 (bioRxiv, 2025)

B1: human Drp1 isoform 2 (natural protein)
chain: MEALIPVINKLQDVFNTVGADIIQLPQIVVVGTQSSGKSSVLESLVGRDLLPRGTGIVTRRPLILQLVHVSQEDKRKTTGEENGVEAEEWGKFLHTKNKLYTDFDEIRQEIENETERISGNNKGVSPEPIHLKIFSPNVVNLTLVDLPGMTKVPVGDQPKDIELQIRELILRFISNPNSIILAVTAANTDMATSEALKISREVDPDGRRTLAVITKLDLMDAGTDAMDVLMGRVIPVKLGIIGVVNRSQLDINNKKSVTDSIRDEYAFLQKKYPSLANRNGTKYLARTLNRLLMHHIRDCLPELKTRINVLAAQYQSLLNSYGEPVDDKSATLLQLITKFATEYCNTIEGTAKYIETSELCGGARICYIFHETFGRTLESVDPLGGLNTIDILTAIRNATGPRPALFVPEVSFELLVKRQIKRLEEPSLRCVELVHEEMQRIIQHCSNYSTQELLRFPKLHDAIVEVVTCLLRKRLPVTNEMVHNLVAIELAYINTKHPDFADACGLMNNNIEEQRRNRLARELPSAVSRDKLIQDSRRETKNVASGGGGVGDGVQEPTTGNWRGMLKTSKAEELLAEEKSKPIPIMPASPQKGHAVNLLDVPVPVARKLSAREQRDCEVIERLIKSYFLIVRKNIQDSVPKAVMHFLVNHVKDTLQSELVGQLYKSSLLDDLLTESEDMAQRRKEAADMLKALQGASQIIAEIRETHLW
B2: human Drp1 isoform 5 (natural protein)
chain: MEALIPVINKLQDVFNTVGADIIQLPQIVVVGTQSSGKSSVLESLVGRDLLPRGTGIVTRRPLILQLVHVSQEDKRKTTGEENDPATWKNSRHLSKGVEAEEWGKFLHTKNKLYTDFDEIRQEIENETERISGNNKGVSPEPIHLKIFSPNVVNLTLVDLPGMTKVPVGDQPKDIELQIRELILRFISNPNSIILAVTAANTDMATSEALKISREVDPDGRRTLAVITKLDLMDAGTDAMDVLMGRVIPVKLGIIGVVNRSQLDINNKKSVTDSIRDEYAFLQKKYPSLANRNGTKYLARTLNRLLMHHIRDCLPELKTRINVLAAQYQSLLNSYGEPVDDKSATLLQLITKFATEYCNTIEGTAKYIETSELCGGARICYIFHETFGRTLESVDPLGGLNTIDILTAIRNATGPRPALFVPEVSFELLVKRQIKRLEEPSLRCVELVHEEMQRIIQHCSNYSTQELLRFPKLHDAIVEVVTCLLRKRLPVTNEMVHNLVAIELAYINTKHPDFADACGLMNNNIEEQRRNRLARELPSAVSRDKSSKVPSALAPASQEPSPAASAEADGKLIQDSRRETKNVASGGGGVGDGVQEPTTGNWRGMLKTSKAEELLAEEKSKPIPIMPASPQKGHAVNLLDVPVPVARKLSAREQRDCEVIERLIKSYFLIVRKNIQDSVPKAVMHFLVNHVKDTLQSELVGQLYKSSLLDDLLTESEDMAQRRKEAADMLKALQGASQIIAEIRETHLW
B3: human Drp1 isoform 6 (natural protein)
chain: MEALIPVINKLQDVFNTVGADIIQLPQIVVVGTQSSGKSSVLESLVGRDLLPRGTGIVTRRPLILQLVHVSQEDKRKTTGEENDPATWKNSRHLSKGVEAEEWGKFLHTKNKLYTDFDEIRQEIENETERISGNNKGVSPEPIHLKIFSPNVVNLTLVDLPGMTKVPVGDQPKDIELQIRELILRFISNPNSIILAVTAANTDMATSEALKISREVDPDGRRTLAVITKLDLMDAGTDAMDVLMGRVIPVKLGIIGVVNRSQLDINNKKSVTDSIRDEYAFLQKKYPSLANRNGTKYLARTLNRLLMHHIRDCLPELKTRINVLAAQYQSLLNSYGEPVDDKSATLLQLITKFATEYCNTIEGTAKYIETSELCGGARICYIFHETFGRTLESVDPLGGLNTIDILTAIRNATGPRPALFVPEVSFELLVKRQIKRLEEPSLRCVELVHEEMQRIIQHCSNYSTQELLRFPKLHDAIVEVVTCLLRKRLPVTNEMVHNLVAIELAYINTKHPDFADACGLMNNNIEEQRRNRLARELPSAVSRDKSSKVPSALAPASQEPSPAASAEADGKVASGGGGVGDGVQEPTTGNWRGMLKTSKAEELLAEEKSKPIPIMPASPQKGHAVNLLDVPVPVARKLSAREQRDCEVIERLIKSYFLIVRKNIQDSVPKAVMHFLVNHVKDTLQSELVGQLYKSSLLDDLLTESEDMAQRRKEAADMLKALQGASQIIAEIRETHLW
B4: human Drp1 isoform 4 (natural protein)
chain: MEALIPVINKLQDVFNTVGADIIQLPQIVVVGTQSSGKSSVLESLVGRDLLPRGTGIVTRRPLILQLVHVSQEDKRKTTGEENGVEAEEWGKFLHTKNKLYTDFDEIRQEIENETERISGNNKGVSPEPIHLKIFSPNVVNLTLVDLPGMTKVPVGDQPKDIELQIRELILRFISNPNSIILAVTAANTDMATSEALKISREVDPDGRRTLAVITKLDLMDAGTDAMDVLMGRVIPVKLGIIGVVNRSQLDINNKKSVTDSIRDEYAFLQKKYPSLANRNGTKYLARTLNRLLMHHIRDCLPELKTRINVLAAQYQSLLNSYGEPVDDKSATLLQLITKFATEYCNTIEGTAKYIETSELCGGARICYIFHETFGRTLESVDPLGGLNTIDILTAIRNATGPRPALFVPEVSFELLVKRQIKRLEEPSLRCVELVHEEMQRIIQHCSNYSTQELLRFPKLHDAIVEVVTCLLRKRLPVTNEMVHNLVAIELAYINTKHPDFADACGLMNNNIEEQRRNRLARELPSAVSRDKSSKVPSALAPASQEPSPAASAEADGKVASGGGGVGDGVQEPTTGNWRGMLKTSKAEELLAEEKSKPIPIMPASPQKGHAVNLLDVPVPVARKLSAREQRDCEVIERLIKSYFLIVRKNIQDSVPKAVMHFLVNHVKDTLQSELVGQLYKSSLLDDLLTESEDMAQRRKEAADMLKALQGASQIIAEIRETHLW
B5: human Drp1 isoform 8 (natural protein)
chain: MEALIPVINKLQDVFNTVGADIIQLPQIVVVGTQSSGKSSVLESLVGRDLLPRGTGIVTRRPLILQLVHVSQEDKRKTTGEENDPATWKNSRHLSKGVEAEEWGKFLHTKNKLYTDFDEIRQEIENETERISGNNKGVSPEPIHLKIFSPNVVNLTLVDLPGMTKVPVGDQPKDIELQIRELILRFISNPNSIILAVTAANTDMATSEALKISREVDPDGRRTLAVITKLDLMDAGTDAMDVLMGRVIPVKLGIIGVVNRSQLDINNKKSVTDSIRDEYAFLQKKYPSLANRNGTKYLARTLNRLLMHHIRDCLPELKTRINVLAAQYQSLLNSYGEPVDDKSATLLQLITKFATEYCNTIEGTAKYIETSELCGGARICYIFHETFGRTLESVDPLGGLNTIDILTAIRNATGPRPALFVPEVSFELLVKRQIKRLEEPSLRCVELVHEEMQRIIQHCSNYSTQELLRFPKLHDAIVEVVTCLLRKRLPVTNEMVHNLVAIELAYINTKHPDFADACGLMNNNIEEQRRNRLARELPSAVSRDKVASGGGGVGDGVQEPTTGNWRGMLKTSKAEELLAEEKSKPIPIMPASPQKGHAVNLLDVPVPVARKLSAREQRDCEVIERLIKSYFLIVRKNIQDSVPKAVMHFLVNHVKDTLQSELVGQLYKSSLLDDLLTESEDMAQRRKEAADMLKALQGASQIIAEIRETHLW
B6: human Drp1 isoform 3 (natural protein)
chain: MEALIPVINKLQDVFNTVGADIIQLPQIVVVGTQSSGKSSVLESLVGRDLLPRGTGIVTRRPLILQLVHVSQEDKRKTTGEENGVEAEEWGKFLHTKNKLYTDFDEIRQEIENETERISGNNKGVSPEPIHLKIFSPNVVNLTLVDLPGMTKVPVGDQPKDIELQIRELILRFISNPNSIILAVTAANTDMATSEALKISREVDPDGRRTLAVITKLDLMDAGTDAMDVLMGRVIPVKLGIIGVVNRSQLDINNKKSVTDSIRDEYAFLQKKYPSLANRNGTKYLARTLNRLLMHHIRDCLPELKTRINVLAAQYQSLLNSYGEPVDDKSATLLQLITKFATEYCNTIEGTAKYIETSELCGGARICYIFHETFGRTLESVDPLGGLNTIDILTAIRNATGPRPALFVPEVSFELLVKRQIKRLEEPSLRCVELVHEEMQRIIQHCSNYSTQELLRFPKLHDAIVEVVTCLLRKRLPVTNEMVHNLVAIELAYINTKHPDFADACGLMNNNIEEQRRNRLARELPSAVSRDKVASGGGGVGDGVQEPTTGNWRGMLKTSKAEELLAEEKSKPIPIMPASPQKGHAVNLLDVPVPVARKLSAREQRDCEVIERLIKSYFLIVRKNIQDSVPKAVMHFLVNHVKDTLQSELVGQLYKSSLLDDLLTESEDMAQRRKEAADMLKALQGASQIIAEIRETHLW

Target: the molecule itself
Assay: mass photometry

Protein | stoichiometry N
B1 | 2
B2 | 2
B3 | 2
B4 | 2
B5 | 2
B6 | 2
